Experimental data published in US20060142193.

Target: T1, serum response factor (SRF), P11831
T1 chain: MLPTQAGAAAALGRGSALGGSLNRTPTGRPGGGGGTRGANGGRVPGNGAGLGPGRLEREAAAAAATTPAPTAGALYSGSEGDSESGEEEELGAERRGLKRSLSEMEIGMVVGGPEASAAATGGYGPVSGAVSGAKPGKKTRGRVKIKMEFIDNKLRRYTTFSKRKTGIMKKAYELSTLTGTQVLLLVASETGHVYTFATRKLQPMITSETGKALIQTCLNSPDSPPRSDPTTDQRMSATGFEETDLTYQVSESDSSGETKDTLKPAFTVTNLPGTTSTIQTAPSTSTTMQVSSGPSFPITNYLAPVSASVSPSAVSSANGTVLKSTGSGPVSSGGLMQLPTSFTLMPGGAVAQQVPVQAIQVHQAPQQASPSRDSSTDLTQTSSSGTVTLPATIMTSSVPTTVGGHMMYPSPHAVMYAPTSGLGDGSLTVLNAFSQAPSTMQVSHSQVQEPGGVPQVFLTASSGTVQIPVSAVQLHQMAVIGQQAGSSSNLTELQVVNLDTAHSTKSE

B1: ROCK1Δ1 (C-terminally truncated mutant (1-1080) of ROCK1) (protein)
chain: MSTGDSFETRFEKMDNLLRDPKSEVNSDCLLDGLDALVYDLDFPALRKNKNIDNFLSRYKDTINKIRDLRMKAEDYEVVKVIGRGAFGEVQLVRHKSTRKVYAMKLLSKFEMIKRSDSAFFWEERDIMAFANSPWVVQLFYAFQDDRYLYMVMEYMPGGDLVNLMSNYDVPEKWARFYTAEVVLALDAIHSMGFIHRDVKPDNMLLDKSGHLKLADFGTCMKMNKEGMVRCDTAVGTPDYISPEVLKSQGGDGYYGRECDWWSVGVFLYEMLVGDTPFYADSLVGTYSKIMNHKNSLTFPDDNDISKEAKNLICAFLTDREVRLGRNGVEEIKRHLFFKNDQWAWETLRDTVAPVVPDLSSDIDTSNFDDLEEDKGEEETFPIPKAFVGNQLPFVGFTYYSNRRYLSSANPNDNRTSSNADKSLQESLQKTIYKLEEQLHNEMQLKDEMEQKCRTSNIKLDKIMKELDEEGNQRRNLESTVSQIEKEKMLLQHRINEYQRKAEQENEKRRNVENEVSTLKDQLEDLKKVSQNSQLANEKLSQLQKQLEEANDLLRTESDTAVRLRKSHTEMSKSISQLESLNRELQERNRILENSKSQTDKDYYQLQAILEAERRDRGHDSEMIGDLQARITSLQEEVKHLKHNLEKVEGERKEAQDMLNHSEKEKNNLEIDLNYKLKSLQQRLEQEVNEHKVTKARLTDKHQSIEEAKSVAMCEMEKKLKEEREAREKAENRVVQIEKQCSMLDVDLKQSQQKLEHLTGNKERMEDEVKNLTLQLEQESNKRLLLQNELKTQAFEADNLKGLEKQMKQEINTLLEAKRLLEFELAQLTKQYRGNEGQMRELQDQLEAEQYFSTLYKTQVKELKEEIEEKNRENLKKIQELQNEKETLATQLDLAETKAESEQLARGLLEEQYFELTQESKKAASRNRQEITDKDHTVSRLEEANSMLTKDIEILRRENEELTEKMKKAEEEYKLEKEEEISNLKAAFEKNINTERTLKTQAVNKLAEIMNRKDFKIDRKKANTQDLRKKEKENRKLQLELNQEREKFNQMVVKHQKELNDMQAQLVEECAHRNELQMQL
- level of full-length SRF after incubation with active caspase 3 in the presence or absence of ROCK1Δ1: The full-length level was markedly decreased in the presence of active ROCK1
